Data: article PMC6367419 (Nature Communications, 2019)

B1: EscO^1–125 (full-length EPEC central stalk protein EscO) (natural protein)
chain: MLDRILSIRKSRANRLRESMAKINSQIKEVDGKLDDCEQAIKESIASKQAYCASLVNLDKVSLYKYQIKNNAFDEQKQRLYEKKSSLSKEKRSLLDSQKRTKEDLQHVNKSIEKLSFAIKEHYFD
notes: source: E. coli BL21 (λDE3), purified (HisTrap HP, thrombin cleavage, second HisTrap HP, desalting)
B2: EscN^29–446 (EPEC type III secretion system ATPase EscN, residues 29–446) (enzyme)
chain: NSSTRYEGKIINIGGTIIKARLPKARIGAFYKIEPSQRLAEVIAIDEDEVFLLPFEHVSGMYCGQWLSYQGDEFKIRVGDALLGRLIDGIGRPMESNIVAPYLPFERSLYAEPPDPLLRQVIDQPFILGVRAIDGLLTCGIGQRIGIFAGSGVGKSTLLGMICNGASADIIVLALIGERGREVNEFLALLPQSTLSKCVLVVTTSDRPALERMKAAFTATTIAEYFRDQGKNVLLMMDSVTRYARAARDVGLASGEPDVRGGFPPSVFSSLPKLLERAGPAPKGSITAIYTVLLESDNVNDPIGDEVRSILDGHIVLTRELAEENHFPAIDIGLSASRVMHNVVTSEHLRAAAECKKLIATYKNVELLIRIGEYTMGQDPEADKAIKNRKLIQNFIQQSTKDISSYEKTIESLFKVVA
notes: also called T3SS ATPase; chains NA to NF; source: E. coli BL21 (λDE3), purified (HisTrap HP, thrombin cleavage, second HisTrap HP, desalting)

Experiments:
[1] = molecular target: T1, EscN-EscO complex (EscN^29–446 with EscO^1–125) (Escherichia coli, UniProt B7UMA6); experiment: cryo-EM structure, […] Å; assay type: binding; parameters: EscN residues 29-446 plus full-length EscO (125 residues); N-terminal 6His tags cleaved with thrombin (tag residue 0 left on EscO); E. coli BL21(DE3); 6:1 complex; with Type III secretion system central stalk protein EscO; conditions: bound as transition state analogue Mg2+ADP-AlF3; pH 7.5; catalytic inter-subunit sites (four of six)
[2] = molecular target: T1, EscN-EscO complex (EscN^29–446 with EscO^1–125); conditions: 3 mM ATP, 500 nM EscN, EscO 1:1 molar, 37 °C; pre-incubated with Mg2+ADP-AlF3, diluted out before assay
[3] = molecular target: EscN^29–446 (EPEC type III secretion system ATPase EscN, residues 29–446) (enteropathogenic Escherichia coli (EPEC) O127:H6 E2348/69) (UniProt B7UMA6)
[4] = molecular target: B2; experiment: cryo-EM structure; conditions: both partners purified
[5] = molecular target: the molecule itself; experiment: cryo-EM structure

With `Nc1ncnc2c1ncn2[C@@H]1O[C@H](COP(=O)(O)OP(=O)(O)O)[C@@H](O)[C@H]1O` [ADP] the “cryo-EM structure, 3.29 Å” value [1] was “Sample density of the class two catalytic site ligands ADP, AlF3 (grey and cyan)”.

For `Nc1ncnc2c1ncn2[C@@H]1O[C@H](COP(=O)(O)OP(=O)(O)OP(=O)(O)O)[C@@H](O)[C@H]1O` [ATP], the “EnzChek phosphate release ATPase assay” value [2] was “found to further enhance EscN oligomerization and ATPase activity”.

“EscO^1–125 Lys110Glu/Lys114Glu (natural protein)” showed a decrease in catalytic rate of EscN ATPase (EnzChek) with the EscO mutant against wild-type EscO [3] of 50%.

For B1, the “stoichiometry N” value [4] was 1 EscO per EscN hexamer.

In the case of B2, the “stoichiometry N” value [5] is reported as 6.
